Target: the molecule itself
Assay: SEC; HiLoad 16/60 Superdex 200 on an AKTA pure system after Talon purification; PfHK eluted at ~65 mL; mass estimated from a calibration curve

B1: Plasmodium falciparum hexokinase (enzyme)
chain: MSEYDIAKNDVTYTKLDTIECDIPINEELSWRINKFVNQLRISYSTLEEFVDNFVYELKKGLEAHRKHPNLWIPHECSFKMLDSCIANIPTGQEKGTYYAIDFGGTNFRAVRASLDGKGKIKRDQETYSLKFTGSYSHEKGLLDKHATASQLFDHFAERIKYIMGEFNDLDNKEVKSVGFTFSFPCTSPSINCSILIDWTKGFETGRATNDPVEGRDVCKLMNDAFVRAAIPAKVCCVLNDAVGTLMSCAYQKGRGTPPCYIGIILGTGSNGCYYEPEWKKYKYAGKIINIEFGNFDKDLPTSPIDLVMDWYSANRSRQLFEKMISGAYLGEIVRRFMVNVLQSACSKKMWISDSFNSESGSVVLNDTSKNFEDSRKVAKAAWDMDFTDEQIYVLRKICEAVYNRSAALARGTIAAIAKRIKIIEHSKFTCGVDGSLFVKNAWYCKRLQEHLKVILADKAENLIIIPADDGSGKGAAITAAVIALNADIPQLP
notes: Hexokinase of Plasmodium falciparum, PlasmoDB PF3D7_0624000, gene ordered codon-optimised for E. coli and cloned into pET30a-c(+); the model holds I25-N486 (subunit A) and I23-I489 (subunit B); The PlasmoDB id is that of strain 3D7; also called PfHK; P. falciparum hexokinase
B1 was tested. Which “stoichiometry N” value did it give?
The value was 4.
